What all share (assay): Kinetic parameters for hydrolysis of internally quenched fluorogenic peptides by secPHEX
Format in all cases: biochemical, human
Holding throughout (settings): other: 37° C., 10 mM Bis-Tris buffer pH 5.5, 150 mM NaCl

Substrate in data set [1]: CC(C)C[C@H](NC(=O)c1ccccc1N)C(=O)N[C@@H](CCC(=O)O)C(=O)N[C@@H](CC(C)C)C(=O)N[C@@H](CC(=O)O)C(=O)N[C@@H](CO)C(=O)N[C@@H](CCCNC(=N)N)C(=O)N[C@@H](CCC(N)=O)C(=O)NCCNc1ccc([N+](=O)[O-])cc1[N+](=O)[O-]
Put shortly: (§1)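 Purified human recombinant secPHEX hydrolysing internally quenched fluorogenic peptides at 37° C in 10 mM Bis-Tris pH 5.5, 150 mM NaCl; fluorescence (ex 320, em 420 nm) followed continuously, <5% substrate hydrolysed, inner-filter corrected. Km and kcat by non-linear regression; kcat/Km under [S]<<Km where applicable.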

Substrate in data set [2]: N=C(N)NCCC[C@H](NC(=O)c1ccccc1N)C(=O)N[C@@H](CCCNC(=N)N)C(=O)N[C@@H](CC(=O)O)C(=O)N[C@@H](CC(=O)O)C(=O)N[C@@H](CO)C(=O)N[C@@H](CO)C(=O)N[C@@H](CCC(=O)O)C(=O)N[C@@H](CCC(N)=O)C(=O)NCCNc1ccc([N+](=O)[O-])cc1[N+](=O)[O-]
Put shortly: as §1

Substrate in data set [3]: Nc1ccccc1C(=O)NCC(=O)N[C@@H](Cc1ccccc1)C(=O)N[C@@H](CO)C(=O)N[C@@H](CC(=O)O)C(=O)N[C@@H](Cc1ccc(O)cc1)C(=O)N[C@@H](CCCCNc1ccc([N+](=O)[O-])cc1[N+](=O)[O-])C(=O)O
Put shortly: as §1

Substrate in data set [4]: CC(C)C[C@H](NC(=O)[C@H](Cc1c[nH]c2ccccc12)NC(=O)[C@H](C)NC(=O)c1ccccc1N)C(=O)N[C@@H](CC(=O)O)C(=O)N[C@@H](CO)C(=O)NCC(=O)N[C@H](C(=O)N[C@@H](CCC(N)=O)C(=O)NCCNc1ccc([N+](=O)[O-])cc1[N+](=O)[O-])C(C)C
Put shortly:
as §1

B1: human recombinant secPHEX (Homo sapiens) (protein)
chain: SLQAKQEYCLKPECIEAAAAILSKVNLSVDPCDNFFRFACDGWISNNPIPEDMPSYGVYPWLRHNVDLKLKELLEKSISRRRDTEAIQKAKILYSSCMNEKAIEKADAKPLLHILRHSPFRWPVLESNIGPEGVWSERKFSLLQTLATFRGQYSNSVFIRLYVSPDDKASNEHILKLDQATLSLAVREDYLDNSTEAKSYRDALYKFMVDTAVLLGANSSRAEHDMKSVLRLEIKIAEIMIPHENRTSEAMYNKMNISELSAMIPQFDWLGYIKKVIDTRLYPHLKDISPSENVVVRVPQYFKDLFRILGSERKKTIANYLVWRMVYSRIPNLSRRFQYRWLEFSRVIQGTTTLLPQWDKCVNFIESALPYVVGKMFVDVYFQEDKKEMMEELVEGVRWAFIDMLEKENEWMDAGTKRKAKEKARAVLAKVGYPEFIMNDTHVNEDLKAIKFSEADYFGNVLQTRKYLAQSDFFWLRKAVPKTEWFTNPTTVNAFYSASTNQIRFPAGELQKPFFWGTEYPRSLSYGAIGVIVGHEFTHGFDNNGRKYDKNGNLDPWWSTESEEKFKEKTKCMINQYSNYYWKKAGLNVKGKRTLGENIADNGGLREAFRAYRKWINDRRQGLEEPLLPGITFTNNQLFFLSYAHVRCNSYRPEAAREQVQIGAHSPPQFRVNGAISNFEEFQKAFNCPPNSTMNRGMDSCRLW
notes: pure soluble form of PHEX (secPHEX); made in house
Turning to B1, the Km (as a rule, the concentration of substrate that gives half-maximal velocity) in data set [1] was determined as 0.9 µM; in data set [2], 5.3 µM; in data set [3] it was 3.0 µM; in data set [4], 1.5 µM. In addition, the kcat (in general, the number of substrate molecules converted per active site and unit of time at saturation) in data set [1] worked out at 0.05 s⁻¹; in data set [2], 0.5 s⁻¹; in data set [3], 0.5 s⁻¹; in data set [4], 0.04 s⁻¹. The kcat/Km (as a rule, the second-order rate constant that governs catalysis at low substrate concentration) in data set [1] was 55500 M⁻¹ s⁻¹; in data set [2], 94300 M⁻¹ s⁻¹; in data set [3], 166700 M⁻¹ s⁻¹; in data set [4] it was 26700 M⁻¹ s⁻¹.
